This test concerns the target SAd36 fiber-T4 fibritin-SpT (simian (chimpanzee) adenovirus species E serotype 36 (SAd36) | bacteriophage T4). The test is described as follows: SDS-PAGE without boiling.

Consider SAd36 fiber-T4 fibritin-SpT, for which the stoichiometry N was determined as 3.

Source of the values: PMC9330763.
